This data set is described as follows: soluble fraction after stress (log2 fold change); higher = more stays soluble; pooled small domains, quantitative proteomics. As to conditions: stress: 75 degC.
As for “HMQTYTYYIAKNDISIGQKITPDMLIEKQVNLGDSKDRYLSREQLETGKYIAVRQIPAGELISSASANE”, the “soluble fraction (log2)” value is 0.102.

As for “HMQVAPQVERLLRVMGNETLSLSDIMGRMGLSDKKNFRESYLVPALRSAVIEMTIPDKPNSSLQKYRRIHE”, the “soluble fraction (log2)” value was -0.634.

Turning to “HMQVEEKNKKIELYIEGKIKELESNLMYVPNENKKKLLMAFMNRNEDIEIIKTKIDTIFNKSVAAYKENM”, the “soluble fraction (log2)” value was -0.302.

For “HMQVIDNHWRPSRDALDILLRDGISEHFIEDAIPEFILYWRERGTQDSNWNSRFLQHIRLQWARYTNAV”, the “soluble fraction (log2)” value was -1.67.

“HMQVPDLYRTLGVGRDATTEAIEAAYVGWQARLSAGEPISTQEWERLRYAHEVLSNPQRRSLYDSLVAET”: the “soluble fraction (log2)” value is -0.0937.

“HMQVPVNVSMEILDWVIAHIKIDALPNQIREYLNLWVNGEKEPTFNQVEKVSKATGIPLGYFFLQTPPIED”: the “soluble fraction (log2)” value was -1.79.

For “HMQVQHVWNRLKRPNGDVLYEINRDHPLVSASLDAAADRGAIETLLRQIEQSLPVNQLYVDMNADEHFE”, the “soluble fraction (log2)” value was -0.602.

Take “HMQVSDAAQLAEVVKTVLAENPAAVGDYRKGKKAAIGFLLGQVMRHMRGTANPAVARQLLEQALEDE”: the “soluble fraction (log2)” value was -0.076.

“HMQVSDLSAIDSLIDKVLSEQQAAVQDFRSGQGKAMGFLIGKVMQASDGKANPKVIRELMGKKLA”: the “soluble fraction (log2)” value worked out at 0.0534.

For the sequence “HMQVSIGERVKLARMSAGLNQRQLGKEMGMSAMAISKYETGEVVPNSRVLIQLSQTLHVPLDFFFRS”, the “soluble fraction (log2)” value was -3.04.

As to “HMQVTDADFDQIRLAVLSQLKQNSLTVAELLKIIPFKEQKVMPVIRFLIDNRVLEHGTDMKLTVGNSVK”, the “soluble fraction (log2)” value was -0.223.

Turning to “HMQVTIGADLAEHAARLDVQISDVVKLIKSGVSEGEIKVGLTKLETRLAHPELALVENKLAYLKALIAES”, the “soluble fraction (log2)” value was -2.27.

As to “HMQYALEDDLDSAIKLLTGKGLSGTVAWGWSDTYINVGKKSYSMEFIAKMLLRLGEGSRVTIQVDPA”, the “soluble fraction (log2)” value was -4.62.

“HMQYIINFEYSGMLLREYLRGVLGLSHGTLTALKKDPLGILLNGEHATVRAVLHAGDRLTLALE”: the “soluble fraction (log2)” value is -3.51.

Turning to “HMQYKVMDVTVDGNPVIEFQNLNSKIKWIENNPDAIIQNIKTSSFEADQKRIVGTSRGPFWIVIKPDF”, the “soluble fraction (log2)” value was -0.424.

For “HMQYRQRRGLERMELILDAATRVVAEVGYERTTTNAIATRAGISPGSLYQYFSSKEDIASALWERYAE”, the “soluble fraction (log2)” value is -0.0812.

With “HMRAGEAVTGQVIGVKEDEIILSIAGSKSEGIITRSEFTNEPNVDLTTKVSVGDELEVKVLKVNDGEGMAS”, the “soluble fraction (log2)” value was -0.317.

For “HMRAKPLILLDGREISAEELFSLDKNSIKSIEVLKDETALAQYGEKAKNGVVLVVTKSAAAS”, the “soluble fraction (log2)” value was 0.00789.

Turning to “HMRALPAGQADLLKWIDGVTPRSVEELELLSGLEPGRLSELLMELELAGIVRAVAGDSYIKISKS”, the “soluble fraction (log2)” value was -0.649.

On to “HMRAPETEITYTEFKTALRAGQIETATVGIEQISGKLTDGDLYRTVRVDDPDLLKDLEANHVNAAGRV”, for which the “soluble fraction (log2)” value was determined as 0.0537.

Turning to “HMRASQGRNELILSLLRGHELSILELLEGLEKQGVRVARPTLTKDLNELVSRGSVEATAPPRSKNRTYRIP”, the “soluble fraction (log2)” value is -0.986.

As for “HMRDFLMDSTKNKLSKDQVQLSRIFLWFGNDFGSKAERLEFISRYSGMDFNQPKIDYLTYDWSLNQ”, the “soluble fraction (log2)” value was 0.286.

On to “HMRDLITYVVQINGKLRGKLEVAPDTDPEELKALALEVENVKRSLEGWVVKKVIVVPGKMVSIAAG”, for which the “soluble fraction (log2)” value was -1.77.

For “HMRDLLPHFQRELQFLQTHRNEFAAAYPELGGRLATASDLLDDPHVERMVQSFALLAARVHKRLDDDF”, the “soluble fraction (log2)” value is 0.121.

In the case of “HMRDLTARQQQILALIRQHIADTGFPPTRAEIAAQLGFRSPNAAEEHLKALARKGVIELASGASRGIRLK”, the “soluble fraction (log2)” value is -0.86.

Regarding “HMRDPFDALSARERAVASLVQRGLRNKEVASELGLTEGTVKVHLHKVFDKLGIRGRTELILLAQER”, the “soluble fraction (log2)” value was -1.35.

Consider “HMRDQAIDIYKTVHSVAEPYKEVFLLRVLGELSFKEISHIFGKSESWAKVTFFRAKIKVVEKREES”, for which the “soluble fraction (log2)” value is -3.97.

(Values after the domain aggregation screens of Martell et al. (2025).)
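Further: 20 min heating vs room temperature control held 20 min.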
